# Laboratory results taken from patent publication US20070071750A1 (UNIVERSIDAD NACIONAL AUT NOMA DE M XICO UNAM, published 2007).
# T1: toxin Cll1 from Centruroides limpidus limpidus (Centruroides limpidus limpidus, UniProt P45667 1-66)
# T1 sequence: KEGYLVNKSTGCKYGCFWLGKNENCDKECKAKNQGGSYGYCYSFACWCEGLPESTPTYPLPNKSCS
# B1: scFv C1 (scFv)
# scFv: QVNLRESGGGLVQPGGSLRLSCAASGFSFGSYGMHWVRQAPGKGLEWVAVISYDGSNKYYADSVKGRFTISRDNSKNTLYLQMNSLRAEDTAVYYCAKDARDCLMCADWYFDLWGRGTLVTVSSGGGGSGGGGSGGGGSNFMLTQPHSASGTPGQRVTISCSGSSSNIGSNTVNWYRHLPGSAPELLIGSHNQRPSGVPDRFSASKSDTSASLAISGLQSEDEADYYCAAWDDSLIGYVFGTGTKLTVLG
# notes: also called clone C1; phage-antibody C1
# B2: scFv 3F (scFv)
# scFv: EVQLVESGGGLVQPGGSLRLSCAGSGFTFDNYAMHWIRQVPGEGLEWVSGISRSSGDIGYADSVKGRFTISRDNAKKSLSLQMNSLRAEDTAVYYCARGGVGSFDTWGQGTMVTVSSGGGGSGGGGSGGGGSEIVLTQSPATLSVSPGERATLSCRASQSVRSYLAWYQQKPGQAPRLLISDASNRATGIPARFTGSGSGTDFTLTISSLEPEDFAIYYCQQYRYSPRTFGQGTKVEIKR
# notes: also called clone 3F; phage-antibody 3F
# Assays:
# [1] = biological target: T2, toxin Cn2 from Centruroides noxius Hoffmann scorpion venom (Centruroides noxius Hoffmann, UniProt P01495 17-82); assay: SPR (Biacore), Cn2 immobilised, soluble scFv injected
# T2 construct: mature; also called Cn2 toxin; formerly 11-9.2.2
# BSA = biological target: T3, BSA (Bos taurus, UniProt P02769); assay: phage ELISA, BSA coated, anti-M13-HRP, Abs. 492 nm
# T3 construct: also called bovine serum albumin
# [2] = biological target: T1, toxin Cll1 from Centruroides limpidus …; assay: phage ELISA, Cll1 coated at 3 µg/ml, anti-M13-HRP, Abs. 492 nm
# [3] = biological target: toxin Cll2 from Centruroides limpidus limpidus (Centruroides limpidus limpidus, UniProt P59898 1-66); assay: phage ELISA, Cll2 coated at 3 µg/ml, anti-M13-HRP, Abs. 492 nm
Binder,Kd [1] [nM],koff [1] [s⁻¹],kon [1] [M⁻¹ s⁻¹],binding result (BSA),binding result [2],binding result [3]
B1,540,0.014,20000,no binding (tested: 1x10^11 phages/ml),no binding (tested: 1x10^11 phages/ml),no binding (tested: 1x10^11 phages/ml)
B2,–,–,–,no binding (tested: 1x10^11 phages/ml),no binding (tested: 1x10^11 phages/ml),no binding (tested: 1x10^11 phages/ml)
